The text below walks through data of article PMC5829233, “PV1, a novel Plasmodium falciparum merozoite dense granule protein, interacts with exported protein in infected erythrocytes” (Scientific Reports, 2018).

The chains are these.
T1: recombinant PfPV1 (P. falciparum Parasitophorous Vacuolar protein 1), His-tagged (P. falciparum 3D7, UniProt Q8II72 23-452)
T1 chain: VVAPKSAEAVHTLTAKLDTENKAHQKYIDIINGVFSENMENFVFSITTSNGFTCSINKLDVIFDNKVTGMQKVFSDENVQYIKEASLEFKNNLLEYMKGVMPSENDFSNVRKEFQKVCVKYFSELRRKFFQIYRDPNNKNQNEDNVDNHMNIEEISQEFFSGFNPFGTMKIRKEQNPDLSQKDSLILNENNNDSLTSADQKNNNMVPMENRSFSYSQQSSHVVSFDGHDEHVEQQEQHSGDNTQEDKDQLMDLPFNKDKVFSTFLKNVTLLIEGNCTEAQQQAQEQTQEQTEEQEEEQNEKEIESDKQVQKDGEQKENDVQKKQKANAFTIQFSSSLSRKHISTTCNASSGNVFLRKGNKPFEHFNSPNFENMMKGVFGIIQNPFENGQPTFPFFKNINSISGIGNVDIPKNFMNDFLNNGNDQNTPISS

B1: Pf3D7_0801000N, N-terminal truncate of Pf3D7_0801000 spanning 93 aa - 494 aa (domain or fragment)
chain: GANPESISLGYELSEKDEGNKNDLINSATDVSTELENLKERLFPELELYTNDQNSRNNTPNLRKGSLGFDSFKKLELGTLNQFDKDKMINLKDETNMNEFEGFLGRNSMASNVVTSELFDEPVDDSSSTTTSTGTKLQNVPSNDNNGELLKDEPIDDYINNNSKVESEDNYYAQQNMQSQSKDNYASEQNVADQSTDNYPTQHDVPVQLRDNYASEQEYFDRGEQLNDVSADNNTSNKLKDEPVDNNTSNKLKDEPVDNNTSNKLKDEPVDDNTSNKLKDEPVDNNTINKLKDEPVDDNTSNILKDEPVDDHAGKHLKDEPVDDHAGKHMKDEPVDIDRTNIKKGLNEQHVNPWTTTLADLKNINNSMKIEKNNKSNEQVKNTSVSKSCDIIKPSKFNKKNL
B2: PTP5_Tr0, GST-tagged recombinant PTP5 36 aa - 631 aa (domain or fragment)
chain: TYNNYTYNGYNNDGSKQVRCKRLLSEPAVEFDTIFDVFKESFLDQMGCSDQDKDEIKNAMKIYYDNIDMNALSNEIQTNDNFFNEFGNDVNSINKIMKTDITNEQGTSADNNTTENNVSTSQVDEQPEASTSGVERMKERSNLFANNLTEEKNDTGDIKKEENKSKPSQLDGNNHSETSSHQGEKNNENETEKKTDQNETGTKKPSKYTMNLDSPLLKGSSEGETSSKKAQEKSVEPTKKPSKYTMNLDSPLLKGSSGSETSSTKESNDSNGATKKPSKYTMNLDSPLLKGSSGGKTSSNKESNESNEPTKKPSKYTMNLDSPLLKGSSGGETSSNKESNENNEPTKKPSKYTMNLDSPLLKGSSEGETSSNKESNESNEPTKKPSKYTMNLDSPLLKGSSGGETSSNKESNENNEPTKKPSKYTMNLDSPLLKGSSEGETSSNKESNESNEPTKKPSKYTMNLDSPLLKGSSEGETSSNEKQEESNVATKKPSKYTLNLDSPLLKSETKSDVKRGSNKSFSLENIGKLDIGSLLAQNLELLKGFALNFQTLSLFFLVFVGQFYPKHFQKAAIFIGMVNVFLECKRLYGRSQKKLK
notes: not shown: GST, N-terminal, kept
B3: recombinant PfPV1 (P. falciparum Parasitophorous Vacuolar protein 1), His-tagged (natural protein)
chain: T1 chain
notes: also called His-tagged purified recombinant PfPV1; not shown: His6, C-terminal, kept

The target of test [1] is recombinant PfPV1 (P. falciparum Parasitophorous Vacuolar protein 1), His-tagged (P. falciparum 3D7) (UniProt Q8II72). Put plainly: SPR; Biacore X100, CM5 chip, […]; HBS-EP+ (10 mM HEPES pH 7.4, 150 mM NaCl, 3 mM EDTA, 0.05% P20); multi-cycle kinetics, global fit. For orientation: Surface plasmon resonance follows binding to a sensor surface in real time, without labels.
Test [2] shares this target. The experiment in a line: SPR; Biacore X100, CM5 chip, […]; HBS-EP+ (10 mM HEPES pH 7.4, 150 mM NaCl, 3 mM EDTA, 0.05% P20); single-cycle kinetics, global fit.
Test [3] has as its target T1, recombinant PfPV1 (P. falciparum …). The experiment in a line: SPR.
Test [4] deals with B3. Put plainly: SPR; Biacore X100, CM5 chip, […]; HBS-EP+ (10 mM HEPES pH 7.4, 150 mM NaCl, 3 mM EDTA, 0.05% P20); single-cycle kinetics, global fit. The following applies: both partners purified.
The target of test [5] is B2. The test is described as above. As to conditions: both partners purified.

“PTP5_Tr1, GST-tagged recombinant PTP5 36 aa - 334 aa (domain or fragment)”: in test [1], the equilibrium dissociation constant (Kd) (usually a measure of binding affinity in units of concentration) was 938 nM.
With “PTP5_Tr2, GST-tagged recombinant PTP5 537 aa - 631 aa (domain or fragment)”, the Kd in test [2] stood at 1.24 nM.
B1: in test [3], the Kd was determined as 45.4 nM.
Consider B2, for which, in test [4], the stoichiometry N (usually the number of molecules, sites or subunits per partner or assembly) came to 1.
For B3, the Kd in test [5] was found to be 2.71 nM.
